Experiments:
Assay in all cases: ITC
SLAMF7 = biological target: T1, SLAMF7 (Homo sapiens (Human), UniProt Q9NQ25)
T1 chain: EDPANTVYSTVE

FAM174C = biological target: T2, FAM174C (Homo sapiens (Human), UniProt Q9BVV8)
T2 chain: DSDEETVFES

CIMPR = biological target: T3, CIMPR (Homo sapiens (Human), UniProt P11717)
T3 chain: EEETDENETEWLM

KIAA0319 = biological target: T4, KIAA0319 (Homo sapiens (Human), UniProt Q5VV43)
T4 chain: ESEFDSDQDTIF

NPDC1 = biological target: T5, NPDC1 (Homo sapiens (Human), UniProt Q9NQX5)
T5 chain: DEENEDGDFTVYEC

CPD = biological target: T6, CPD (Homo sapiens (Human), UniProt O75976)
T6 chain: EEETLYSSKH

B1: TBC1D23 (protein)
chain: DRKEVVNIQTWINKPDIKHHFPCKEVKESGHMFPSHLLVTATHMYCLREILSRKGLAYIQSRQALNSVVKITSKKKHPELITFKYGNSSASGIEILAIERYLIPNAGDATRAIKQQIMKVLDALES
- Kd (SLAMF7): > 100 µM
- Kd (FAM174C): 15.7 µM
- Kd (CIMPR): > 100 µM
- Kd (KIAA0319): 35.2 µM
- Kd (NPDC1): 2.9 µM
- Kd (CPD): 10.6 µM

Reference: publication PMC11093223 (2024)
